“Human protein farnesyltransferase (hFTase)” showed a Turnover numbers under the optimal substrate concentrations (Ras-CVLS (SEQ ID NO: 3)) of 1 min⁻¹.

“W102T mutant of human FTase (W102β converted to threonine)” was tested, and the Turnover numbers under the optimal substrate concentrations (Ras-CVLS (SEQ ID NO: 3)) was 0.59 min⁻¹ and the “substrate specificity characterized by enzymatic assays” value (Ras-CVLS (SEQ ID NO: 3)) was “creating an FTase enzyme greatly preferring GGPP over FPP as its isoprenoid substrate without significantly altering Ca1a2X sequence specificity”.

“Wild-type GGTase-I used in the prenylation assay of Example 3” gave a Turnover numbers under the optimal substrate concentrations (Ras-CVLL (SEQ ID NO: 4)) of 0.65 min⁻¹.

From US20050221459
